The values below are quoted from earlier work in paper PMC8359934.

In general, Kd refers to the free concentration of one partner at which half of the binding sites on the other are occupied at equilibrium, for simple one-to-one binding.

This data set concerns the target sNUCB1 (Homo sapiens) (UniProt Q02818). Kind of data set: SEC-MALS. (In general: SEC sorts molecules by how far they enter the pores of the column.)

Consider sNUCB1 (from UniProt Q02818), for which the dissociation constant (Kd) was 0.26 µM.
